# Measured values reported in patent US20200199241A1 (Chugai, published 2020).
# Where a chain is given by its changes, count along the chain named. Names and notes keep the numbering of the source.
# T1: human FcγRIIb (human, UniProt P31994 43-217, limits assumed)
# T1 construct: also called FcgRIIb
# T1 sequence: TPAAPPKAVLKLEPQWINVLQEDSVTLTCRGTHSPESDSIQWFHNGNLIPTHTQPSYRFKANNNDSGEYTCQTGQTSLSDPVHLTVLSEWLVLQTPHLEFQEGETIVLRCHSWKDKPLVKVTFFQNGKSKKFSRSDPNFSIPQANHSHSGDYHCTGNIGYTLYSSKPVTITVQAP
# T2: human FcγRIIa(H) (human, UniProt P12318 36-217)
# T2 construct: also called FcgRIIaH; FcγRIIa type H
# T2 sequence: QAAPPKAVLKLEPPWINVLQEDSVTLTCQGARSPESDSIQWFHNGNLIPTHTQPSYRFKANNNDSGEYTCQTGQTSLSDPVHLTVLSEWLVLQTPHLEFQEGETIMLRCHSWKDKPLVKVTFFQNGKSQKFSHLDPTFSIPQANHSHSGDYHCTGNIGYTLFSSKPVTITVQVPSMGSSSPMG
# T3: human FcγRIIa(R) (human, UniProt P12318 36-217)
# T3 construct: also called FcgRIIaR; FcγRIIa type R
# T3 chain: T2 sequence with H133R
# B1: GpH7-B3 variant P238T/GpL16-k0 (antibody, human IgG1)
# heavy: not shown
# light: DIVMTQSPLSLPVTPGEPASISCQASESLVHSNRNTYLHWYLQKPGQSPQLLIYKVSNRFSGVPDRFSGSGSGTDFTLKISRVEAEDVGVYYCSQNTHVPPTFGQGTKVEIE
# notes: copies: 2 + 2
# B2: GpH7-B3 variant S267Y/GpL16-k0 (antibody, human IgG1)
# heavy: not shown
# light: B1 light
# notes: copies: 2 + 2
# B3: GpH7-B3 variant V266D/GpL16-k0 (antibody, human IgG1)
# heavy: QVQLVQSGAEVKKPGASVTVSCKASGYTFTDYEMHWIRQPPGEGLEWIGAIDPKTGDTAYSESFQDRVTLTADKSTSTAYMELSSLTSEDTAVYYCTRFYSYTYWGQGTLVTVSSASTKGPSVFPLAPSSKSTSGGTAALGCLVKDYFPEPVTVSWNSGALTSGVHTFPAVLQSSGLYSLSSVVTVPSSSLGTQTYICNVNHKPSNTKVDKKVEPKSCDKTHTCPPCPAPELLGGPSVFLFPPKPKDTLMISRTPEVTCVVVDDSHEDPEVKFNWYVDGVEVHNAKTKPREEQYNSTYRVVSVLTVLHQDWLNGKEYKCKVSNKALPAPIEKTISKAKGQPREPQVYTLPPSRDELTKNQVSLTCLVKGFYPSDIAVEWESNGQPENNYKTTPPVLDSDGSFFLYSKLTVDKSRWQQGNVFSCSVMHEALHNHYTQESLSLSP
# light: B1 light
# notes: copies: 2 + 2
# B4: GpH7-B3 variant V2668/GpL16-k0 (antibody, human IgG1)
# heavy: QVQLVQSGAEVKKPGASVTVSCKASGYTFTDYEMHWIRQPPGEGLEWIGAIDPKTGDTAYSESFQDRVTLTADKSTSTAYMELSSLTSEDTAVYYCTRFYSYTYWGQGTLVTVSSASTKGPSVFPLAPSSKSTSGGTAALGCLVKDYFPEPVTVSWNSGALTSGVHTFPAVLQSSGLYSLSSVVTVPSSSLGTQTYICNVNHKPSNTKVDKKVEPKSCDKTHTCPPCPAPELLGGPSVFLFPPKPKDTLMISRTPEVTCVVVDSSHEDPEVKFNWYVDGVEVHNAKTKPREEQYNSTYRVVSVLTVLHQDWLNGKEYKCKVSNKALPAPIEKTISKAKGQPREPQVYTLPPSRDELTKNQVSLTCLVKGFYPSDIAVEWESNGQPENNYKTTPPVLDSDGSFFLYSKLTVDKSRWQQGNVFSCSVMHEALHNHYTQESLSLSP
# light: B1 light
# notes: copies: 2 + 2
# B5: GpH7-B3 variant V266G/GpL16-k0 (antibody, human IgG1)
# heavy: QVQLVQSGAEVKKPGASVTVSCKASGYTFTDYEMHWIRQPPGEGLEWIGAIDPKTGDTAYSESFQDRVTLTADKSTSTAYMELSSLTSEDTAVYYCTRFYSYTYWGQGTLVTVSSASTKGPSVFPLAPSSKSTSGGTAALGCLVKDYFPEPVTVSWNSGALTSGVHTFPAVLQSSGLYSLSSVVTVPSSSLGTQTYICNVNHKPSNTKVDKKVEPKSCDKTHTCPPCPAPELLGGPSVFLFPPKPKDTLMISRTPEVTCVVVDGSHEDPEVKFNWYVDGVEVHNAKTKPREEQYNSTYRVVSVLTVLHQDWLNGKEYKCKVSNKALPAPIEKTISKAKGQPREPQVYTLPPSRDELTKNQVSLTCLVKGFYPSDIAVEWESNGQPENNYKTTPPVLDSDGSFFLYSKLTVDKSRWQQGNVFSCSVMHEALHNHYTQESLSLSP
# light: B1 light
# notes: copies: 2 + 2
# B6: GpH7-B3 variant V266N/GpL16-k0 (antibody, human IgG1)
# heavy: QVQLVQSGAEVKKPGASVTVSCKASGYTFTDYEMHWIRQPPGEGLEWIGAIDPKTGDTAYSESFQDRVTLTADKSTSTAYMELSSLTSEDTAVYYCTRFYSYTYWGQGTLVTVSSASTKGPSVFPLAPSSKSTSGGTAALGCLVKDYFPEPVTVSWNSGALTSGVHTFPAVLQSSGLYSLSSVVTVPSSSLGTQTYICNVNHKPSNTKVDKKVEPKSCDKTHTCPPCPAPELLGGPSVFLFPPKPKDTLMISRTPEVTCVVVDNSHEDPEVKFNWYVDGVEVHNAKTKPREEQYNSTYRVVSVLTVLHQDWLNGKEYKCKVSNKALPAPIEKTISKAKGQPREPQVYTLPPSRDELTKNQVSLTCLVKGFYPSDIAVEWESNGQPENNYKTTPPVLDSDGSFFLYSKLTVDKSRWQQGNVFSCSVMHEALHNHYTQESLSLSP
# light: B1 light
# notes: copies: 2 + 2
# B7: GpH7-B3 variant S267R/GpL16-k0 (antibody, human IgG1)
# heavy: not shown
# light: B1 light
# notes: copies: 2 + 2
# B8: GpH7-B3 variant V266Y/GpL16-k0 (antibody, human IgG1)
# heavy: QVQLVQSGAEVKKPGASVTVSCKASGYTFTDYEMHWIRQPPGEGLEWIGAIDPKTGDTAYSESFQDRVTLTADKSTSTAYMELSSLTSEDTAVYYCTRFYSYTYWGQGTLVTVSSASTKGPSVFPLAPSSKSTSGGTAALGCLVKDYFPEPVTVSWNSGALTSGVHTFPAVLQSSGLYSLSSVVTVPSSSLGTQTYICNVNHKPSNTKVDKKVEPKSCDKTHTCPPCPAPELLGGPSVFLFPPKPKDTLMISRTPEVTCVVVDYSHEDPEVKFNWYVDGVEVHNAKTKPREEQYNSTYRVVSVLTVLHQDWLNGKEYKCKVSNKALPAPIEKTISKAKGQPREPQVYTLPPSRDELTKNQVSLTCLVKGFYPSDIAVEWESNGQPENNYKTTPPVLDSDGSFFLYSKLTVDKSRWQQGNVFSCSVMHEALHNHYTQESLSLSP
# light: B1 light
# notes: copies: 2 + 2
# B9: GpH7-B3 variant V266A/GpL16-k0 (antibody, human IgG1)
# heavy: not shown
# light: B1 light
# notes: copies: 2 + 2
# B10: GpH7-B3 variant S267K/GpL16-k0 (antibody, human IgG1)
# heavy: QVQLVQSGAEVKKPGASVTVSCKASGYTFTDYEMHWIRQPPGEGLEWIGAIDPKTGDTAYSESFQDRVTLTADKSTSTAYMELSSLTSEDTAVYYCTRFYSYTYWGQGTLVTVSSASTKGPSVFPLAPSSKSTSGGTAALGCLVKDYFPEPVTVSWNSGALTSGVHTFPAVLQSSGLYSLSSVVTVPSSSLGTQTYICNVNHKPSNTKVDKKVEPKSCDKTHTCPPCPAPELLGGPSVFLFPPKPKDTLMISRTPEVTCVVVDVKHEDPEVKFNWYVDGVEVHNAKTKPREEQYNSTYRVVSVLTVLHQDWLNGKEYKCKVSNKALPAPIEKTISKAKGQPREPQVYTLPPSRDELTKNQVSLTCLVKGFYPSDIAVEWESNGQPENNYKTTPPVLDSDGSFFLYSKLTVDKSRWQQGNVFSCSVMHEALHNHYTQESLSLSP
# light: B1 light
# notes: copies: 2 + 2
# B11: GpH7-B3 variant S267H/GpL16-k0 (antibody, human IgG1)
# heavy: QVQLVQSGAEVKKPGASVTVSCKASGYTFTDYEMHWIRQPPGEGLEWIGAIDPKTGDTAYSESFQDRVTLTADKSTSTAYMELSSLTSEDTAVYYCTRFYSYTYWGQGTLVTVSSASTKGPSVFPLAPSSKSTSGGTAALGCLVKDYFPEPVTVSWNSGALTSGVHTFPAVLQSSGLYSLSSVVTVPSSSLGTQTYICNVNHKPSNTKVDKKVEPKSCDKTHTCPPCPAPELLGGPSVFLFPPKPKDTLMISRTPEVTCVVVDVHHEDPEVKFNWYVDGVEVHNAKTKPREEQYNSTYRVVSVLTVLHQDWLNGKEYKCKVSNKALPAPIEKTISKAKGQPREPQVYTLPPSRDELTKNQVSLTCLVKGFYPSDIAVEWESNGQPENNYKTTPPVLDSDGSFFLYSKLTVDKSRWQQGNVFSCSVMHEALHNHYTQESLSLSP
# light: B1 light
# notes: copies: 2 + 2
# B12: GpH7-B3 variant V266R/GpL16-k0 (antibody, human IgG1)
# heavy: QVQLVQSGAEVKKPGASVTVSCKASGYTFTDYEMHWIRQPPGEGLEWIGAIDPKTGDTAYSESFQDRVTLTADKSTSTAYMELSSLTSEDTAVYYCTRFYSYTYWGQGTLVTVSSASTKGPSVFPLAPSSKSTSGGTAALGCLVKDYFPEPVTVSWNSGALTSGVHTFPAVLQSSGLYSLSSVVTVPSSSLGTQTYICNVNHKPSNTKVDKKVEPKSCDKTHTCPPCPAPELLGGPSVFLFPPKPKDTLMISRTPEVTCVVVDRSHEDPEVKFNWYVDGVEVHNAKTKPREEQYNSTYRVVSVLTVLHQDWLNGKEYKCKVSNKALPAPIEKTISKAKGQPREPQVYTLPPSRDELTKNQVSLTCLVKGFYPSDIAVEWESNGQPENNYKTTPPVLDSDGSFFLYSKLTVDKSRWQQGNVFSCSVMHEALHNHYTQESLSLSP
# light: B1 light
# notes: copies: 2 + 2
# B13: GpH7-B3 variant S239Q/GpL16-k0 (antibody, human IgG1)
# heavy: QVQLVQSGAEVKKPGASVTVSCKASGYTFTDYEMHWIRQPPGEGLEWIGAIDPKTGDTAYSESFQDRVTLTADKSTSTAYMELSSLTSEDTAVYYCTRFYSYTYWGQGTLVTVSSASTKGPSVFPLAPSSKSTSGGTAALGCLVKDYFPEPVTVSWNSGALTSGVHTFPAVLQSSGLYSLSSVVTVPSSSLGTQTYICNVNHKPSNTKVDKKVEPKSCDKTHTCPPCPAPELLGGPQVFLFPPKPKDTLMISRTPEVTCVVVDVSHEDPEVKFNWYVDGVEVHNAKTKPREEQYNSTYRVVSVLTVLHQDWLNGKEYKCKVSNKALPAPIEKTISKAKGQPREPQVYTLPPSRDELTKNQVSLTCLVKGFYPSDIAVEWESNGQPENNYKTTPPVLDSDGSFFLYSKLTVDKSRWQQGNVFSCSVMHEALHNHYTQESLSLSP
# light: B1 light
# notes: copies: 2 + 2
# B14: GpH7-B3 variant S267P/GpL16-k0 (antibody, human IgG1)
# heavy: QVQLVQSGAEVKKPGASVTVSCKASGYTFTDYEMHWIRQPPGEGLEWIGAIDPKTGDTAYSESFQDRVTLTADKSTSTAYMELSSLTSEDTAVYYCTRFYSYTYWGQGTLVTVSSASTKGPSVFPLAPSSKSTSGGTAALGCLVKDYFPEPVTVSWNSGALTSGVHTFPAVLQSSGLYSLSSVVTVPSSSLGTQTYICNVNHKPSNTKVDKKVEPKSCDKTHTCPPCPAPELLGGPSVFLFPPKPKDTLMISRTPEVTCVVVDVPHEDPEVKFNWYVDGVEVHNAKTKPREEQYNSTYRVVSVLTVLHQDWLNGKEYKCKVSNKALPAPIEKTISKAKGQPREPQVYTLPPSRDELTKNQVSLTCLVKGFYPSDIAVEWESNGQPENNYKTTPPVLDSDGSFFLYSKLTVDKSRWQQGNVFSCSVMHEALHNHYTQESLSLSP
# light: B1 light
# notes: copies: 2 + 2
# Target: T1, human FcγRIIb
# Experiment: SPR (Biacore);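 also: antibody variants captured on sensor chip, Fcγ receptor flowed over at 25 °C, bound receptor normalized to amount of captured antibody, expressed relative to reference antibody set as 100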
row,relative binding activity,Binder
1,8 % of GpH7-B3/GpL16-k0,B1
2,14 % of GpH7-B3/GpL16-k0,B2
3,2 % of GpH7-B3/GpL16-k0,B3
4,18 % of GpH7-B3/GpL16-k0,B4
5,22 % of GpH7-B3/GpL16-k0,B5
6,40 % of GpH7-B3/GpL16-k0,B6
7,0 % of GpH7-B3/GpL16-k0,B7
8,15 % of GpH7-B3/GpL16-k0,B8
9,55 % of GpH7-B3/GpL16-k0,B9
10,3 % of GpH7-B3/GpL16-k0,B10
11,42 % of GpH7-B3/GpL16-k0,B11
12,-2 % of GpH7-B3/GpL16-k0,B12
13,68 % of GpH7-B3/GpL16-k0,B13
14,5 % of GpH7-B3/GpL16-k0,B14

# Target: T4, human FcγRIa (human, UniProt P12314 16-292, limits assumed)
# T4 construct: also called FcgRIa; FcγRI (CD64)
# Experiment: SPR (Biacore);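 also: antibody variants captured on sensor chip, Fcγ receptor flowed over at 25 °C, bound receptor normalized to amount of captured antibody, expressed relative to reference antibody set as 100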
# T4 sequence (P12314 16-292 limits assumed): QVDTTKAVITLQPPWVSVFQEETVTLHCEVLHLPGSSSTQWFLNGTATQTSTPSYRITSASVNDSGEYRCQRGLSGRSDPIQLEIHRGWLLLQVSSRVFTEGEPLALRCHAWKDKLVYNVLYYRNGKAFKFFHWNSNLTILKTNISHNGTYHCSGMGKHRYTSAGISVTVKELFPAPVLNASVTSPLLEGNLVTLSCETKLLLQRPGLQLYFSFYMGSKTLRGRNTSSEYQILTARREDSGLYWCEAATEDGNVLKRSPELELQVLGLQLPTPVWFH
row,relative binding activity,Binder
1,67 % of GpH7-B3/GpL16-k0,B1
2,96 % of GpH7-B3/GpL16-k0,B2
3,67 % of GpH7-B3/GpL16-k0,B3
4,79 % of GpH7-B3/GpL16-k0,B4
5,86 % of GpH7-B3/GpL16-k0,B5
6,84 % of GpH7-B3/GpL16-k0,B6
7,78 % of GpH7-B3/GpL16-k0,B7
8,75 % of GpH7-B3/GpL16-k0,B8
9,95 % of GpH7-B3/GpL16-k0,B9
10,68 % of GpH7-B3/GpL16-k0,B10
11,95 % of GpH7-B3/GpL16-k0,B11
12,5 % of GpH7-B3/GpL16-k0,B12
13,96 % of GpH7-B3/GpL16-k0,B13
14,78 % of GpH7-B3/GpL16-k0,B14

# Target: T5, human FcγRIIIa(F) (human, UniProt P08637 17-208, limits assumed)
# T5 construct: also called FcgRIIIaF; allotype F158
# Experiment: SPR (Biacore);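 also: antibody variants captured on sensor chip, Fcγ receptor flowed over at 25 °C, bound receptor normalized to amount of captured antibody, expressed relative to reference antibody set as 100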
# T5 sequence (P08637 other isoform, or with tags, fused parts or gaps limits assumed): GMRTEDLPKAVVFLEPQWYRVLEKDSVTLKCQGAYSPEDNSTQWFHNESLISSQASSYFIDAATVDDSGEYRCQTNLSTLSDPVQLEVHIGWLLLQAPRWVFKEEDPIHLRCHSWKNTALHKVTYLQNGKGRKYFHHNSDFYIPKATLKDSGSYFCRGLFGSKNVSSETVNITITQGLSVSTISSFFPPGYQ
row,relative binding activity,Binder
1,0 % of GpH7-B3/GpL16-k0,B1
2,1 % of GpH7-B3/GpL16-k0,B2
3,1 % of GpH7-B3/GpL16-k0,B3
4,3 % of GpH7-B3/GpL16-k0,B4
5,3 % of GpH7-B3/GpL16-k0,B5
6,5 % of GpH7-B3/GpL16-k0,B6
7,0 % of GpH7-B3/GpL16-k0,B7
8,0 % of GpH7-B3/GpL16-k0,B8
9,26 % of GpH7-B3/GpL16-k0,B9
10,1 % of GpH7-B3/GpL16-k0,B10
11,1 % of GpH7-B3/GpL16-k0,B11
12,-1 % of GpH7-B3/GpL16-k0,B12
13,29 % of GpH7-B3/GpL16-k0,B13
14,0 % of GpH7-B3/GpL16-k0,B14

# Target: T2, human FcγRIIa(H)
# Experiment: SPR (Biacore);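 also: antibody variants captured on sensor chip, Fcγ receptor flowed over at 25 °C, bound receptor normalized to amount of captured antibody, expressed relative to reference antibody set as 100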
row,relative binding activity,Binder
1,6 % of GpH7-B3/GpL16-k0,B1
2,2 % of GpH7-B3/GpL16-k0,B2
3,2 % of GpH7-B3/GpL16-k0,B3
4,5 % of GpH7-B3/GpL16-k0,B4
5,10 % of GpH7-B3/GpL16-k0,B5
6,32 % of GpH7-B3/GpL16-k0,B6
7,-1 % of GpH7-B3/GpL16-k0,B7
8,2 % of GpH7-B3/GpL16-k0,B8
9,41 % of GpH7-B3/GpL16-k0,B9
10,1 % of GpH7-B3/GpL16-k0,B10
11,3 % of GpH7-B3/GpL16-k0,B11
12,-1 % of GpH7-B3/GpL16-k0,B12
13,58 % of GpH7-B3/GpL16-k0,B13
14,2 % of GpH7-B3/GpL16-k0,B14

# Target: T3, human FcγRIIa(R)
# Experiment: SPR (Biacore)
row,relative binding activity,Binder
1,19 % of GpH7-B3/GpL16-k0,B1
2,10 % of GpH7-B3/GpL16-k0,B2
3,3 % of GpH7-B3/GpL16-k0,B3
4,26 % of GpH7-B3/GpL16-k0,B4
5,27 % of GpH7-B3/GpL16-k0,B5
6,58 % of GpH7-B3/GpL16-k0,B6
7,-6 % of GpH7-B3/GpL16-k0,B7
8,18 % of GpH7-B3/GpL16-k0,B8
9,68 % of GpH7-B3/GpL16-k0,B9
10,1 % of GpH7-B3/GpL16-k0,B10
11,27 % of GpH7-B3/GpL16-k0,B11
12,-6 % of GpH7-B3/GpL16-k0,B12
13,57 % of GpH7-B3/GpL16-k0,B13
14,0 % of GpH7-B3/GpL16-k0,B14
